Test results from patent US20230277625A1 (SIMCHA IL 18, published 2023).

Key:
[1] = target: T1, Human IL-18BP (amino acids 31-194), biotinylated (human, UniProt O95998 31-194, biotin on the AviTag (BirA ligase) where used biotinylated); assay: on-yeast binding isotherms; 20 µM used for NBD; yeast-displayed variant; ratio computed with 20 µM put in for NBD
T1 construct: Soluble decoy receptor; also called hIL-18BP; recombinant IL-18BP
T1 sequence: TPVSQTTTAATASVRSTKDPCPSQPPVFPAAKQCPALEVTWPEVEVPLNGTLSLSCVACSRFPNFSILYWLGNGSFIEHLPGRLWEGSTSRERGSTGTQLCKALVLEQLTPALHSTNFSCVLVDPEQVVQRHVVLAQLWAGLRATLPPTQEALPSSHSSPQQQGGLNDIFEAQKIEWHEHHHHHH

[2] = target: T1, Human IL-18BP (amino acids 31-194), …; assay: on-yeast binding isotherms; KD ratio relative to WT IL-18; yeast-displayed variant; ratio normalized to WT, from the 20 µM placeholder
[3] = target: T1, Human IL-18BP (amino acids 31-194), …; assay: on-yeast binding isotherms; 20 µM used for NBD
[4] = target: T1, Human IL-18BP (amino acids 31-194), …; assay: on-yeast binding isotherms; KD ratio relative to WT IL-18
[5] = target: T2, Mouse IL-18Rα ectodomain (amino acids 19-329), biotinylated (mouse, UniProt Q61098 19-329, biotin on the AviTag (BirA ligase)); assay: on-yeast binding isotherm (flow cytometry)
T2 construct: range 19-329; Secreted from Expi293 cells (H7 signal peptide removed); also called mIL-18Rα; mIL18Ra
T2 sequence: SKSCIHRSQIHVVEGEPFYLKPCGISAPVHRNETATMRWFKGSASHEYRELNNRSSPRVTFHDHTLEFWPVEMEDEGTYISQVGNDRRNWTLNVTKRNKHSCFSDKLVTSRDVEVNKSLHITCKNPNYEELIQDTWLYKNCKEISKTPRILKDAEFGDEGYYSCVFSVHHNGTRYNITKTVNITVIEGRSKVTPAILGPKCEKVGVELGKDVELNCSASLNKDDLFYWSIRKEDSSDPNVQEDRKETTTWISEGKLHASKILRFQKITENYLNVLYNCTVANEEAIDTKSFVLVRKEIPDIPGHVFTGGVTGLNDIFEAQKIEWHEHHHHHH
Experimental: (§1) Individual colonies of IL-18 yeast were grown overnight at 30° C. in SDCAA liquid media and induced in SGCAA liquid media for 1 day at 20° C. IL-18 display levels on yeast were verified by flow cytometry using an anti-cMyc tag antibody (anti-myc-PE; Cell Signaling Technologies). Receptor staining with biotinylated IL-18Rα (with or without IL-18R β) or biotinylated IL-18BP was performed in PBS supplemented with 0.5% BSA and 2 mM EDTA (PBE) on ice. All analysis was performed on a Sony SA3800 flow cytometer.

[6] = target: T3, Mouse IL-18BP (amino acids 31-194), biotinylated (mouse, UniProt Q9Z0M9 29-193, biotin on the AviTag (BirA ligase)); assay: yeast binding isotherms and SPR; members per FIG. 11A legend
T3 construct: also called mIL-18BP
T3 sequence: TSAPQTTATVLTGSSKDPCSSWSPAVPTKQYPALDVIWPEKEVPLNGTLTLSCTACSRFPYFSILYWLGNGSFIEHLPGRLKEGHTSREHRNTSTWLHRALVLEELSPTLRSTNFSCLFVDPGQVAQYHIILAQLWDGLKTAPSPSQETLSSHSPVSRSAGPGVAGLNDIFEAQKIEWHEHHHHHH
Experimental: as §1
(§2) Experiments were conducted using a Biacore T100 and carried out at 25° C. Biotinylated IL-18Rα or IL-18BP were immobilized onto a Biacore biotin capture chip (Series S CAP sensor chip, GE Healthcare) to yield an Rmax of ˜50 RU (IL-18Rα) or ˜10 RU (IL-18BP). Measurements were made with serial dilutions of the IL-18 variants in HEPES buffered Saline-P+buffer (10 mM HEPES pH 7.4, 150 mM NaCl, 0.005% surfactant P20). The surface was regenerated by three 60-sec injections of regeneration buffer (3/4 (v/v) 8M guanidine hydrochloride with 1/4 (v/v) 1M sodium hydroxide). Experiments were performed in multiple channels simultaneously for increased observations. All data were analyzed with the Biacore T100 evaluation software version 2.0 with a 1:1 Langmuir binding model.

[7] = target: T3, Mouse IL-18BP (amino acids 31-194), …; assay: SPR; KD ratio relative to WT IL-18; SPR; ratio normalized to WT
Experimental: as §2

[8] = target: T2, Mouse IL-18Rα ectodomain (amino acids …); assay: SPR (Biacore T100), receptor captured via biotin, IL-18 as analyte
Experimental: as §2

[9] = target: T3, Mouse IL-18BP (amino acids 31-194), …; assay: SPR; KD for IL-18BP over KD for IL-18Rα; SPR; ratio of two measured KD
Experimental: as §2

[10] = target: T3, Mouse IL-18BP (amino acids 31-194), …; assay: SPR (Biacore T100), IL-18BP captured via biotin, IL-18 as analyte; SPR, soluble variant
Experimental: as §2

[11] = target: T3, Mouse IL-18BP (amino acids 31-194), …; assay: on-yeast binding isotherms; 10 µM used for NBD; yeast-displayed variant; ratio computed with 10 µM put in for NBD
Experimental: as §1

[12] = target: T3, Mouse IL-18BP (amino acids 31-194), …; assay: on-yeast binding isotherms; KD ratio relative to WT IL-18; yeast-displayed variant; ratio normalized to WT, from the 10 µM placeholder
Experimental: as §1

B1: SEQ ID NO: 39 (human DR-IL-18 variant hA8) (ligand)
chain: YFGKLESRLSVIRNLNDQVLFIDQGNRPLFEDMTDSDCRDNAPRTIFIISKYKDKQPRAQAVTISVKCEKISTLSCENKIISFKEMNPPDNIKDTKSDIIFFQRDVPGHKHKMQFESSSYEGYFLACEKERDLFKLILKKEDELGDRSIMFTIQNED
notes: Engineered variant
[1]
  KD ratio IL-18BP/IL-18Rα: > 347
[2]
  Dissociation Constant Ratio normalized to WT IL-18: > 1170

B2: SEQ ID NO: 52 (human DR-IL-18 variant hH3) (ligand)
chain: RFGKLESRLSVIRNLNDQVLFIDQGNRPLFEDMTDSDCRDNAPRTIFIISTYKDSQPRGKAVTISVKCEKISTLSCENKIISFKEMNPPDNIKDTKSDIIFFQRDVPGHKHKMQFESSSYEGYFLACEKERDLFKLILKKEDELGDRSIMFTVQNED
notes: Engineered variant
[3]
  KD ratio IL-18BP/IL-18Rα: > 239
[4]
  Dissociation Constant Ratio normalized to WT IL-18: > 809

B3: SEQ ID NO: 57 (human DR-IL-18 variant hB9) (ligand)
chain: RFGKHESKLSVIRNLNDQVLFIDQGNRPLFEDMTDSDCRDNAPRTIFIISTYRDSQPRGKAVTISVKCEKISTLSCENKIISFKEMNPPDNIKDTKSDIIFFERNVPGHKYKMQFESSSYEGYFLACEKERDLFKLILKKEDELGDRSIMFTVQNED
notes: Engineered variant
[3]
  KD ratio IL-18BP/IL-18Rα: > 157
[4]
  Dissociation Constant Ratio normalized to WT IL-18: > 534

B4: SEQ ID NO: 62 (murine DR-IL-18 variant mC1) (ligand)
chain: NFGRLHCTTAVIRNINDQVLFVDKRQPVFEDMTDIDQSASEPQTRLIIYAYVDRRLRGKAVTLSVKDSKMSTLSCKNKIISFEEMDPPENIDDIQSDLIFFQKKVPGHNKMEFESSLYEGHFLACQKEDDAFKLILKKKDENGDKSVMFTLTNLHQS
notes: Engineered variant
[5]
  Kd: 43 nM
[6]
  Kd: > 1000 nM
[7]
  Dissociation Constant Ratio normalized to WT IL-18: 1.44e+07
[8]
  Kd: 1.09 nM
[9]
  KD ratio IL-18BP/IL-18Rα: 26300
[10]
  Kd: 28700 nM
[11]
  KD ratio IL-18BP/IL-18Rα: > 233
[12]
  Dissociation Constant Ratio normalized to WT IL-18: > 1230
